How the values were obtained:
[1] = molecular target: IatT, GCN5-related N-acetyltransferase (GNAT) of the iat lasso peptide BGC (Actinosynnema mirum DSM 43827); experiment: ITC
[2] = molecular target: IatT, GCN5-related N-acetyltransferase (GNAT) of the iat lasso peptide BGC (Actinosynnema mirum DSM 43827); experiment: cryo-EM structure

stoichiometry N (molar equivalent) [1]	stoichiometry N [2]	Substance
1		mirusin B (compound 2), monoacetylated lasso peptide
1		mirusin C (compound 3), diacetylated lasso peptide
	14	IatT, GCN5-related N-acetyltransferase (GNAT) of the iat lasso peptide BGC (enzyme)
